According to patent publication US20200101152A1 (INSERM INSTITUT NATIONAL DE LA SANTE ET DE LA RECHERCHE …, published 2020):

Columns and labels:
[1] = biological target: Rhesus macaque (NHP) CD40 ectodomain fused to cohesin (Rhesus macaque, UniProt F6SNI1 21-193); test: multiplexed bead-based equilibrium competition; NHP CD40 ectodomain beads; competitor mouse 12E12 mAb 10 ng/ml, PE anti-mouse IgG, Bio-Plex 200
[2] = biological target: T1, human CD40 ectodomain fused to cohesin (human, UniProt P25942 22-193); test: multiplexed bead-based equilibrium competition; human CD40 ectodomain beads; competitor mouse 12E12 mAb 10 ng/ml, PE anti-mouse IgG, Bio-Plex 200
T1 construct: also called human CD40 coated beads; not shown: cohesin carrier (GenBank CP000568.1 nt 3622666-3623172) and the Nhe I site linker
T1 sequence (P25942 22-193 limits assumed, form in doubt): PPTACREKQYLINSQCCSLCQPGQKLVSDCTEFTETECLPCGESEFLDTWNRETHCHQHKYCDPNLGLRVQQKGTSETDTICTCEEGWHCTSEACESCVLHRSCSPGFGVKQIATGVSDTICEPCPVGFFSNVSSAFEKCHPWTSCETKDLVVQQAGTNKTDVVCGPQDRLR

Sequence of Rhesus macaque (NHP) CD40 ectodomain fused to cohesin (F6SNI1 entry or part of it): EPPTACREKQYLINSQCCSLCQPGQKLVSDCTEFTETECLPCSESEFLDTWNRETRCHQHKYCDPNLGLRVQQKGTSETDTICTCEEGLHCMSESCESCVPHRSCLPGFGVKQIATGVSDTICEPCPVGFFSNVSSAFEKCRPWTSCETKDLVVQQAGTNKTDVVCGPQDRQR

B1: humanized αCD40 (humanized anti-human CD40 12E12 recombinant human IgG4 mAb) (antibody, V domains shown)
VH: EVQLVESGGGLVQPGGSLKLSCATSGFTFSDYYMYWVRQAPGKGLEWVAYINSGGGSTYYPDTVKGRFTISRDNAKNTLYLQMNSLRAEDTAVYYCARRGLPFHAMDYWGQGTLVTVSS
VL: DIQMTQSPSSLSASVGDRVTITCSASQGISNYLNWYQQKPGKAVKLLIYYTSILHSGVPSRFSGSGSGTDYTLTISSLQPEDFATYYCQQFNKLPPTFGGGTKLEIKG
notes: also called hAnti-CD40VH3-LV-hIgG4HC
What does the source list for B1?
IC50 [1]: 0.83 pM; IC50 [2]: 1 pM
